Assay results: the supplement of paper PMC7125110
± gives the standard error. For part of these data: Variants at the floor of the assay were thinned out.

B1: glmS ribozyme (parent)
chain: AUAAAAGCGCCAGAACUACAGAAAUGUAGUUGACGAGGAGGAGGUUUAUCGAAUUUUCGGCGGAUGCCUCCAAA

How the values were obtained:
Details in all cases: with glucosamine-6-phosphate
glucosamine-6-phosphate [1] = variants of: B1; assay: kcat; higher = faster cleavage; RNA array
How it was run: (§1)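 Glucosamine-6-phosphate (40 μM to 10 mM) in HEPES/KCl/Mg(OAc)2 buffer was flowed over sequenced MiSeq chips, and tiles were imaged over ~14 h. Barcoded ribozyme variants there had been transcribed in situ by E. coli RNA polymerase and were tracked through a hybridised Cy3 probe at 37 °C. One- or two-exponential decay fits to per-tile medians, normalised to baseline and to non-cleaving reference variants, gave kobs. kcat and KM came from weighted Michaelis–Menten fits across concentrations.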

glucosamine-6-phosphate [2] = variants of: B1; assay: self-cleavage kobs at 40 uM GlcN6P; higher = faster cleavage; RNA array
How it was run: as §1

glucosamine-6-phosphate [3] = variants of: B1; assay: self-cleavage kobs at 640 uM GlcN6P; higher = faster cleavage; RNA array
How it was run: as §1

glucosamine-6-phosphate [4] = variants of: B1; assay: self-cleavage kobs at 2500 uM GlcN6P; higher = faster cleavage; RNA array
How it was run: as §1

glucosamine-6-phosphate [5] = variants of: B1; assay: self-cleavage kobs at 10000 uM GlcN6P; higher = faster cleavage; RNA array
How it was run: as §1

glucosamine-6-phosphate [6] = variants of: B1; assay: KM; higher = weaker cofactor use; RNA array
How it was run: as §1

glucosamine-6-phosphate [7] = variants of: B1; assay: self-cleavage kobs at 160 uM GlcN6P; higher = faster cleavage; RNA array
How it was run: as §1

Variant: A64G G66C
- kcat (glucosamine-6-phosphate [1]): 0.00291 ± 0.001 s⁻¹
- self-cleavage kobs at 40 uM GlcN6P (glucosamine-6-phosphate [2]): 4.68e-05 ± 1.7e-05 s⁻¹
- self-cleavage kobs at 640 uM GlcN6P (glucosamine-6-phosphate [3]): 0.00057 ± 0.00011 s⁻¹
- self-cleavage kobs at 2500 uM GlcN6P (glucosamine-6-phosphate [4]): 0.00103 ± 0.00022 s⁻¹
- self-cleavage kobs at 10000 uM GlcN6P (glucosamine-6-phosphate [5]): 0.0027 ± 0.00051 s⁻¹

Variant: G38U C68G
- kcat (glucosamine-6-phosphate [1]): 0.000246 ± 5.7e-05 s⁻¹
- KM (glucosamine-6-phosphate [6]): 108 ± 52 µM
- self-cleavage kobs at 40 uM GlcN6P (glucosamine-6-phosphate [2]): 6.28e-05 ± 1e-05 s⁻¹
- self-cleavage kobs at 160 uM GlcN6P (glucosamine-6-phosphate [7]): 0.000349 ± 0.00017 s⁻¹
- self-cleavage kobs at 640 uM GlcN6P (glucosamine-6-phosphate [3]): 0.000294 ± 4.2e-05 s⁻¹
- self-cleavage kobs at 10000 uM GlcN6P (glucosamine-6-phosphate [5]): 0.000182 ± 4e-05 s⁻¹

Variant: C34U G60C
- kcat (glucosamine-6-phosphate [1]): < 1e-05 s⁻¹
- self-cleavage kobs at 40 uM GlcN6P (glucosamine-6-phosphate [2]): < 1e-05 s⁻¹

Variant: G40C U46G
- kcat (glucosamine-6-phosphate [1]): 0.000983 ± 6.7e-05 s⁻¹
- KM (glucosamine-6-phosphate [6]): 2350 ± 280 µM
- self-cleavage kobs at 160 uM GlcN6P (glucosamine-6-phosphate [7]): 7.1e-05 ± 3.3e-05 s⁻¹
- self-cleavage kobs at 640 uM GlcN6P (glucosamine-6-phosphate [3]): 0.00021 ± 4.6e-05 s⁻¹
- self-cleavage kobs at 2500 uM GlcN6P (glucosamine-6-phosphate [4]): 0.000525 ± 0.00016 s⁻¹
- self-cleavage kobs at 10000 uM GlcN6P (glucosamine-6-phosphate [5]): 0.000789 ± 0.00015 s⁻¹

Variant: A14G C58G
- kcat (glucosamine-6-phosphate [1]): 0.00036 ± 0.00013 s⁻¹
- self-cleavage kobs at 160 uM GlcN6P (glucosamine-6-phosphate [7]): 4.95e-05 ± 1.8e-05 s⁻¹
- self-cleavage kobs at 640 uM GlcN6P (glucosamine-6-phosphate [3]): 7.22e-05 ± 2.1e-05 s⁻¹
- self-cleavage kobs at 2500 uM GlcN6P (glucosamine-6-phosphate [4]): 0.000115 ± 2.3e-05 s⁻¹
- self-cleavage kobs at 10000 uM GlcN6P (glucosamine-6-phosphate [5]): 0.000276 ± 3.5e-05 s⁻¹

Variant: U47C A52C
- kcat (glucosamine-6-phosphate [1]): 4.02e-05 ± 1.2e-06 s⁻¹
- KM (glucosamine-6-phosphate [6]): 3020 ± 290 µM
- self-cleavage kobs at 160 uM GlcN6P (glucosamine-6-phosphate [7]): < 1e-05 s⁻¹
- self-cleavage kobs at 640 uM GlcN6P (glucosamine-6-phosphate [3]): < 1e-05 s⁻¹

Variant: G41A A64G
- kcat (glucosamine-6-phosphate [1]): 0.00209 ± 0.00064 s⁻¹
- KM (glucosamine-6-phosphate [6]): 5950 ± 2800 µM
- self-cleavage kobs at 160 uM GlcN6P (glucosamine-6-phosphate [7]): 7.21e-05 ± 2e-05 s⁻¹
- self-cleavage kobs at 2500 uM GlcN6P (glucosamine-6-phosphate [4]): 0.00071 ± 0.00016 s⁻¹
- self-cleavage kobs at 10000 uM GlcN6P (glucosamine-6-phosphate [5]): 0.00128 ± 0.00023 s⁻¹

Variant: A36U A39C
- kcat (glucosamine-6-phosphate [1]): < 1e-05 s⁻¹
- self-cleavage kobs at 40 uM GlcN6P (glucosamine-6-phosphate [2]): < 1e-05 s⁻¹
- self-cleavage kobs at 160 uM GlcN6P (glucosamine-6-phosphate [7]): < 1e-05 s⁻¹
- self-cleavage kobs at 2500 uM GlcN6P (glucosamine-6-phosphate [4]): < 1e-05 s⁻¹
- self-cleavage kobs at 10000 uM GlcN6P (glucosamine-6-phosphate [5]): < 1e-05 s⁻¹

Variant: G32C A48U
- kcat (glucosamine-6-phosphate [1]): < 1e-05 s⁻¹
- self-cleavage kobs at 40 uM GlcN6P (glucosamine-6-phosphate [2]): < 1e-05 s⁻¹

Variant: U55C C61G
- kcat (glucosamine-6-phosphate [1]): < 1e-05 s⁻¹
- self-cleavage kobs at 40 uM GlcN6P (glucosamine-6-phosphate [2]): < 1e-05 s⁻¹
- self-cleavage kobs at 10000 uM GlcN6P (glucosamine-6-phosphate [5]): < 1e-05 s⁻¹

Variant: G43C C68G
- kcat (glucosamine-6-phosphate [1]): 0.0157 ± 0.0024 s⁻¹
- KM (glucosamine-6-phosphate [6]): 265 ± 63 µM
- self-cleavage kobs at 40 uM GlcN6P (glucosamine-6-phosphate [2]): 0.00205 ± 0.00027 s⁻¹
- self-cleavage kobs at 160 uM GlcN6P (glucosamine-6-phosphate [7]): 0.00622 ± 0.0014 s⁻¹
- self-cleavage kobs at 640 uM GlcN6P (glucosamine-6-phosphate [3]): 0.0109 ± 0.0018 s⁻¹
- self-cleavage kobs at 2500 uM GlcN6P (glucosamine-6-phosphate [4]): 0.0139 ± 0.0031 s⁻¹

Variant: G38A C58G
- kcat (glucosamine-6-phosphate [1]): 1.16e-05 ± 3.2e-06 s⁻¹
- self-cleavage kobs at 160 uM GlcN6P (glucosamine-6-phosphate [7]): < 1e-05 s⁻¹
- self-cleavage kobs at 10000 uM GlcN6P (glucosamine-6-phosphate [5]): < 1e-05 s⁻¹

Variant: U47A U56G
- kcat (glucosamine-6-phosphate [1]): 0.0204 ± 0.0071 s⁻¹
- KM (glucosamine-6-phosphate [6]): 3000 ± 1300 µM
- self-cleavage kobs at 40 uM GlcN6P (glucosamine-6-phosphate [2]): 0.000264 ± 4.1e-05 s⁻¹
- self-cleavage kobs at 160 uM GlcN6P (glucosamine-6-phosphate [7]): 0.000981 ± 0.00018 s⁻¹
- self-cleavage kobs at 640 uM GlcN6P (glucosamine-6-phosphate [3]): 0.00418 ± 0.00053 s⁻¹
- self-cleavage kobs at 2500 uM GlcN6P (glucosamine-6-phosphate [4]): 0.0064 ± 0.0017 s⁻¹
- self-cleavage kobs at 10000 uM GlcN6P (glucosamine-6-phosphate [5]): 0.0194 ± 0.0038 s⁻¹

Variant: G35A G38C
- kcat (glucosamine-6-phosphate [1]): < 1e-05 s⁻¹
- self-cleavage kobs at 640 uM GlcN6P (glucosamine-6-phosphate [3]): < 1e-05 s⁻¹

Variant: A12U U47C
- kcat (glucosamine-6-phosphate [1]): 0.0109 ± 0.0038 s⁻¹
- KM (glucosamine-6-phosphate [6]): 1790 ± 840 µM
- self-cleavage kobs at 40 uM GlcN6P (glucosamine-6-phosphate [2]): 0.00032 ± 3.3e-05 s⁻¹
- self-cleavage kobs at 160 uM GlcN6P (glucosamine-6-phosphate [7]): 0.000599 ± 0.0001 s⁻¹
- self-cleavage kobs at 640 uM GlcN6P (glucosamine-6-phosphate [3]): 0.00299 ± 0.00033 s⁻¹
- self-cleavage kobs at 2500 uM GlcN6P (glucosamine-6-phosphate [4]): 0.0111 ± 0.0021 s⁻¹
- self-cleavage kobs at 10000 uM GlcN6P (glucosamine-6-phosphate [5]): 0.00873 ± 0.0011 s⁻¹

Variant: A42C U69G
- kcat (glucosamine-6-phosphate [1]): 0.00638 ± 0.0012 s⁻¹
- KM (glucosamine-6-phosphate [6]): 129 ± 51 µM
- self-cleavage kobs at 40 uM GlcN6P (glucosamine-6-phosphate [2]): 0.00174 ± 0.00021 s⁻¹
- self-cleavage kobs at 160 uM GlcN6P (glucosamine-6-phosphate [7]): 0.00249 ± 0.00048 s⁻¹
- self-cleavage kobs at 640 uM GlcN6P (glucosamine-6-phosphate [3]): 0.00686 ± 0.0012 s⁻¹
- self-cleavage kobs at 2500 uM GlcN6P (glucosamine-6-phosphate [4]): 0.00742 ± 0.0017 s⁻¹
- self-cleavage kobs at 10000 uM GlcN6P (glucosamine-6-phosphate [5]): 0.00624 ± 0.00083 s⁻¹
